Source: US20190309274, “IL-10 RECEPTOR ALPHA HOMING ENDONUCLEASE VARIANTS, COMPOSITIONS, AND METHODS OF USE” (bluebird bio, Inc., published 2019)
Numbering of substitutions follows the chain as printed.

Tests used:
[1] = molecular target: T1, IL-10Rα.G7.A3.G7 I-OnuI homing endonuclease variant (Artificial (Ophiostoma novo-ulmi I-OnuI …)); assay: flow; yeast surface display substrate titration; stated as sub-nanomolar affinity, exact value only in figure; conditions: tags: yeast surface display
T1 chain: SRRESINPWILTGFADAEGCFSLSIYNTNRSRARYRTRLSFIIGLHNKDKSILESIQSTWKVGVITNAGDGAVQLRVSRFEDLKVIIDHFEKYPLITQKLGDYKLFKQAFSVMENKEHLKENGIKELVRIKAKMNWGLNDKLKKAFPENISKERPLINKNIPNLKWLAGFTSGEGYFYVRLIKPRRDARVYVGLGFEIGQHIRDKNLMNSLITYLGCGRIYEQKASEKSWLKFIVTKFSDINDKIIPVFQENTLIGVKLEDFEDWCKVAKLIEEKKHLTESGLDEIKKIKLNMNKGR

[2] = molecular target: T2, IL-10Rα.G7.A3 I-OnuI homing endonuclease variant (Artificial (Ophiostoma novo-ulmi I-OnuI …)); assay: cell_activity; chromosomal mCherry reporter in HEK 293T; variant isolated by display sorting under 50 pM affinity conditions
T2 chain: T1 chain with S55N, Y176H
Description: The activity of reprogrammed I-OnuI HEs that target exon 2 of the IL-10Rα gene was measured using a chromosomally integrated fluorescent reporter system (Certo et. al., 2011). Fully reprogrammed I-OnuI HEs that bind and cleave the IL-10Rα target sequence were cloned into mammalian expression plasmids and then individually transfected into a HEK 293T […] cell line that was reprogrammed to contain the IL-10Rα target sequence upstream of an out-of-frame gene encoding the fluorescent mCherry protein. Cleavage of the embedded target site by the HE and the subsequent accumulation of small insertions or deletions, caused by DNA repair via the non-homologous end joining (NHEJ) pathway, results in approximately one out of three repaired loci placing the fluorescent reporter gene back “in-frame”. mCherry fluorescence is therefore a readout of endonuclease activity at the chromosomally embedded target sequence. […] FIG. 3.
A secondary I-OnuI variant library was generated by performing random mutagenesis on one of the reprogrammed I-OnuI HEs that targets the IL-10Rα target site, identified in the initial reporter screen (IL-10Rα.G7, SEQ ID NO: 6). In addition, display-based flow sorting was performed under more stringent affinity conditions (50 pM) to isolate variants with improved binding characteristics. FIG. 3. […]

B1: IL-10Rα exon 2 HE target site (dsDNA)
DNA 1: GGTGGAAAAATTCTGCTTCAAA
DNA 2: TTTGAAGCAGAATTTTTCCACC
Question: Which results are given for B1?
Answer: Kd [1]: < 1 nM; activity [2]: ~2 fold vs IL-10Rα.G7
